# B1: ODN1 x ODNcom1 (dsDNA)
# DNA 1: CAGACGATCAGCGACGCGTC
# DNA 2: GACGCGTCGCTGATCGTCTG
# B2: d(pA)16 x d(pT)16 (dsDNA)
# DNA 1: AAAAAAAAAAAAAAAA
# DNA 2: TTTTTTTTTTTTTTTT
# modifications: 5' phosphate
# B3: d(pA)20 x d(pT)20 (dsDNA)
# DNA 1: AAAAAAAAAAAAAAAAAAAA
# DNA 2: TTTTTTTTTTTTTTTTTTTT
# modifications: 5' phosphate
# B4: d(pA)12 x d(pT)12 (dsDNA)
# DNA 1: AAAAAAAAAAAA
# DNA 2: TTTTTTTTTTTT
# modifications: 5' phosphate
# B5: ODN2 x ODNcom2 (dsDNA)
# DNA 1: AGTGCCTGACCGTCGTCGAC
# DNA 2: GTCGACGACGGTCAGGCACT
# B6: d(pA)3 + d(pT)3 mixture (mixed)
# ?: AAA
# DNA: TTT
# modifications: 5' phosphate
# B7: d(pA)6 + d(pT)6 mixture (mixed)
# ?: AAAAAA
# DNA: TTTTTT
# modifications: 5' phosphate
# Molecular target: T1, histone H1° (H1.0) (Homo sapiens, UniProt P07305 1-194)
# T1 sequence (P07305 whole entry): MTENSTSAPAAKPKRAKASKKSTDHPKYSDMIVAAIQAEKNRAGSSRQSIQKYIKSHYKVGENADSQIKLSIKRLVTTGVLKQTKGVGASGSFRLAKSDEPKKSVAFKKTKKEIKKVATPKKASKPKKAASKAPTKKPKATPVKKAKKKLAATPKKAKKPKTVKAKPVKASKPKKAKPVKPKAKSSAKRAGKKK
# Assay: competition filter binding (I50)
# Details: 5' phosphate; 20 mM Tris-HCl pH 7.5, 5 mM MgCl2, 1 mM EDTA, 0.3 mg/mL H1, 1 h at 20 C; nitrocellulose filters; competition against 12.0 uM 32P 12-mer; mononucleotides …
row,Molecule,Kd [µM]
1,d(pC)2,4400

# Molecular target: T2, H1° histone (human recombinant; H1 histone) (Homo sapiens, UniProt P07305)
# T2 construct: gene H1-0; commercial recombinant human H1° (BioLabs M2501S), free histone
# T2 sequence (P07305 2-194): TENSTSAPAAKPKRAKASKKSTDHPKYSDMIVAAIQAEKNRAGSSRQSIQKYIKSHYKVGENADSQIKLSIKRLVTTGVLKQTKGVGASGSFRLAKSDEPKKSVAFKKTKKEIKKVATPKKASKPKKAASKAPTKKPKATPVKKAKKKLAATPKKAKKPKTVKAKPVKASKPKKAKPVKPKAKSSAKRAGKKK
# Assay: competition with […]'-[…]TAGAAGATCAAA, nitrocellulose filter binding
# Details: 20 mM Tris-HCl pH 7.5, 5 mM MgCl2, 1 mM EDTA, 20 °C, 0.3 mg/mL H1; Kd taken as I50 with 12 µM labelled 12-mer (its Kd); error not above 10–12%
row,Molecule,Kd [µM]
1,Nc1ccn([C@H]2C[C@H](O)[C@@H](COP(=O)(O)O)O2)c(=O)n1 [dCMP],10000
2,Cc1cn([C@H]2C[C@H](O)[C@@H](COP(=O)(O)O)O2)c(=O)[nH]c1=O [dTMP],13000
3,Nc1ncnc2c1ncn2[C@H]1C[C@H](O)[C@@H](COP(=O)(O)O)O1 [dAMP],16000

# Molecular target: T1, histone H1° (H1.0)
# Assay: filter binding; 5 mM Mg2+; 20 mM Tris-HCl pH 7.5, 5 mM MgCl2, 1 mM EDTA, 0.3 mg/mL H1, 1 h at 20 C; nitrocellulose filters; competition against 12.0 uM 32P 12-mer; mononucleotides dAMP/dCMP/dTMP not listed
# Details: protein: commercial; label: 5'-32P
row,Molecule,Kd [µM]
1,"TAGAAGATCAAA (ssDNA, 5' phosphate (32P)) [12-mer hetero-ON 32P probe]",12

# Molecular target: T1, histone H1° (H1.0)
# Assay: competition filter binding (I50); 5 mM Mg2+; 20 mM Tris-HCl pH 7.5, 5 mM MgCl2, 1 mM EDTA, 0.3 mg/mL H1, 1 h at 20 C; nitrocellulose filters; competition against 12.0 uM 32P 12-mer; mononucleotides dAMP/dCMP/dTMP not listed
# Details: protein: commercial
row,Molecule,Kd [µM]
1,"TTTT (ssDNA, 5' phosphate) [d(pT)4]",96
2,"CCCCC (ssDNA, 5' phosphate) [d(pC)5]",300
3,"AAAAAAAAAAAAAAAA (ssDNA, 5' phosphate) [d(pA)16]",10
4,"CCCCCCCC (ssDNA, 5' phosphate) [d(pC)8]",34
5,AGTGCCTGACCGTCGTCGAC (ssDNA) [ODN2],3.8
6,"TTTTTTTTTTTT (ssDNA, 5' phosphate) [d(pT)12]",10
7,"AAAAAAAA (ssDNA, 5' phosphate) [d(pA)8]",48
8,"CCCCCCCCCC (ssDNA, 5' phosphate) [d(pC)10]",25
9,"AAAAAAAAAAAAAAAAAAAA (ssDNA, 5' phosphate) [d(pA)20]",10
10,"CCCCCCCCCCCC (ssDNA, 5' phosphate) [d(pC)12]",20
11,GACGCGTCGCTGATCGTCTG (ssDNA) [ODNcom1],3.7
12,"AAAAA (ssDNA, 5' phosphate) [d(pA)5]",70
13,"TTTTTTTTTT (ssDNA, 5' phosphate) [d(pT)10]",25
14,GTCGACGACGGTCAGGCACT (ssDNA) [ODNcom2],4.1
15,"TTTTTTTTTTTTTTTTTTTT (ssDNA, 5' phosphate) [d(pT)20]",4.6
16,"AAAAAA (ssDNA, 5' phosphate) [d(pA)6]",57
17,"TAGAAGATCAAA (ssDNA) [12-mer hetero-ON, unlabeled competitor]",12
18,"AAAAAAAAAA (ssDNA, 5' phosphate) [d(pA)10]",28
19,"ATG (ssDNA, 5' phosphate) [d(pATG)]",1500
20,"TTTTTTTTTTTTTTTT (ssDNA, 5' phosphate) [d(pT)16]",5
21,"CCCCCC (ssDNA, 5' phosphate) [d(pC)6]",61
22,"AAAAAAAAAAAA (ssDNA, 5' phosphate) [d(pA)12]",14
23,CAGACGATCAGCGACGCGTC (ssDNA) [ODN1],4
24,TCCCATCAAA (ssDNA) [10-mer d(TCCCATCAAA)],30
25,TAAAATCAAA (ssDNA) [10-mer d(TAAAATCAAA)],30
26,"AAAA (ssDNA, 5' phosphate) [d(pA)4]",240
27,"TTTTT (ssDNA, 5' phosphate) [d(pT)5]",75
28,"TTTTTT (ssDNA, 5' phosphate) [d(pT)6]",48
29,"TTTTTTTT (ssDNA, 5' phosphate) [d(pT)8]",76
30,TATAATCTTA (ssDNA) [10-mer d(TATAATCTTA)],28

# Same assay, conditions: protein: commercial; blunt
row,Molecule,Kd [µM]
1,B1,2.7
2,B2,3.8
3,B3,3
4,B4,7.5
5,B5,2.9

# Same assay, conditions: protein: commercial; mixture of complementary strands, not a preformed duplex
row,Molecule,Kd [µM]
1,B6,1000
2,B7,55

# Reference: PMC7582325, “How Human H1 Histone Recognizes DNA” (Molecules, 2020)
